Columns and labels:
[1] = target: neurotensin receptor 1 (wild type), expressed in Sf9 insect cells (rat) (UniProt P20789); assay: radioligand binding; saturation binding; diluted Sf9 membranes with [3H]-labelled ligand at 30-0.02 nM, 4 °C, 2 h, 50 mM Tris-HCl pH 7.4, 1 mM EDTA, 0.1% BSA; nonspecific binding with 1000-fold excess of unlabelled ligand; filtration; apparent constants
[2] = target: NTR1-Y06, expressed in Sf9 insect cells (rat) (UniProt P20789); assay: as above

A Kd [1] of 3 nM and a Kd [2] of 3 nM were found for “[3,11-tyrosyl-3,5-3H(N)]-neurotensin (peptide)” in this work.
